Measured values reported in patent US20160207975A1 (published 2016).

Target: CGRP receptor (CALCRL:RAMP1) on CALCRL:RAMP1-CRE-bla Freestyle 293F cells (UniProt Q16602 23-461; O60894 27-148, limits assumed)
Assay: cell-based or functional assay

CGRP receptor (CALCRL:RAMP1) on CALCRL:RAMP1-CRE-bla Freestyle 293F cells, sequence (Q16602 23-461 limits assumed, chain 1 of 2): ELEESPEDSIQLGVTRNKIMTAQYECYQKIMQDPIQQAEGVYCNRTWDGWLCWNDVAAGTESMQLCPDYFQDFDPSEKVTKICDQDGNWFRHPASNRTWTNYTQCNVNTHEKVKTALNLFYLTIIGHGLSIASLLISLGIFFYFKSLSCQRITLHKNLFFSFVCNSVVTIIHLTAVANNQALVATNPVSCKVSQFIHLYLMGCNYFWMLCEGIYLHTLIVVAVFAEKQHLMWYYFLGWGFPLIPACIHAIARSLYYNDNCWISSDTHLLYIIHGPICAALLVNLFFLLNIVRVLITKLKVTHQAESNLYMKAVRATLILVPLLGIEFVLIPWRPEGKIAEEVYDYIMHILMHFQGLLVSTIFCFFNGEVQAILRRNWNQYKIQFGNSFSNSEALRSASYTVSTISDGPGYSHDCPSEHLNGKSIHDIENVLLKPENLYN
CGRP receptor (CALCRL:RAMP1) on CALCRL:RAMP1-CRE-bla Freestyle 293F cells, sequence (O60894 27-148 limits assumed, chain 2 of 2): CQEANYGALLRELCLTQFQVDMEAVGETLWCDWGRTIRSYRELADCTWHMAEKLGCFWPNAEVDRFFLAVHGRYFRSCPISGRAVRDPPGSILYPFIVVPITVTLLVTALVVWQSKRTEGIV

**Q.** Which “percent activation of the CGRP receptor (CALCRL:RAMP1-CRE-bla Freestyle 293F agonist screen), EC50” value does the source give for H-ACDTATCVLGRLSQELHRLQTYPRTNVGSKAF-NH2 (ends and bridges not checked) [ACX017 (SEQ ID NO:1)] here?
**A.** ~105 nM
